The results in this text go back to patent US20160032297, “METHODS FOR THE IDENTIFICATION OF VARIANT RECOGNITION SITES FOR RARE-CUTTING ENGINEERED DOUBLE-STRAND-BREAK-INDUCING AGENTS AND COMPOSITIONS AND USES THEREOF” (E.I. DU PONT DE NEMOURS AND COMPANY, published 2016).

The target in this data set is T1, MHP14+ meganuclease (single-chain engineered I-CreI) (artificial).
T1 chain: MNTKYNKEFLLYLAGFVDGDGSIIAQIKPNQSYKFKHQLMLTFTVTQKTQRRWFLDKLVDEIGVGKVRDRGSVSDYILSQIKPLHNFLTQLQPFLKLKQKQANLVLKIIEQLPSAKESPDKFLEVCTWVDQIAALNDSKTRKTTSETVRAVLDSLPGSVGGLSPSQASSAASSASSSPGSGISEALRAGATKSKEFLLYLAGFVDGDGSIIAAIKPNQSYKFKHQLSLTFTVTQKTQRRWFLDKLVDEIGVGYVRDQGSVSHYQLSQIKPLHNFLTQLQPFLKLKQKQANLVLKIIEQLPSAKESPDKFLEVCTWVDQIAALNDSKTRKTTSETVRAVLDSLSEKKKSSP
Kind of data set: cleavage_in_vitro; depends on reaction temperature. The note with it: tags: expressed from pQE80 in E. coli, Ni-NTA purified. Here is the method: To generate material for the capture of genomic variant recognition sites, in vitro assays were carried out with 114 nM of purified meganuclease protein isolated as described in Example 2 and 6.07 μg of purified maize genomic DNA at 32° C. for 80 minutes in a final volume of 80 μl in the presence of digestion buffer (50 mM Tris-HCl (pH 7.9), 100 mM NaCl, 10 mM MgCl₂, 1 mM DTT, […]). After 80 minutes, the entire reaction was stopped with an equal volume of stop buffer (100 mM Tris-HCl (pH 8.0), 600 mM NaCl, 2% SDS, 100 mM EDTA, 1 mg of proteinase K per ml) and incubated at 50° C. for 30-45 minutes. Stopped reactions were purified by phenol/chloroform extraction and ethanol precipitated in the presence of 0.2 M NaCl. Precipitated genomic DNA was washed twice with 70% ethanol, dried, and resuspended in 34 μl of water. […]

B1: MHP14+ maize genomic variant site (dsDNA)
DNA 1: CAAGAAGAAGCACGTCAGCTTA
DNA 2: TAAGCTGACGTGCTTCTTCTTG
B1 yielded a relative cleavage activity of around 3 fold vs intended site.
